# Measured values taken from patent publication US8933202B2, “AXL antibodies” (U3 Pharma GmbH, priority 2007, dated 2015).
# T1: AXL (Homo sapiens, UniProt P30530)
# T1 sequence (P30530 26-894): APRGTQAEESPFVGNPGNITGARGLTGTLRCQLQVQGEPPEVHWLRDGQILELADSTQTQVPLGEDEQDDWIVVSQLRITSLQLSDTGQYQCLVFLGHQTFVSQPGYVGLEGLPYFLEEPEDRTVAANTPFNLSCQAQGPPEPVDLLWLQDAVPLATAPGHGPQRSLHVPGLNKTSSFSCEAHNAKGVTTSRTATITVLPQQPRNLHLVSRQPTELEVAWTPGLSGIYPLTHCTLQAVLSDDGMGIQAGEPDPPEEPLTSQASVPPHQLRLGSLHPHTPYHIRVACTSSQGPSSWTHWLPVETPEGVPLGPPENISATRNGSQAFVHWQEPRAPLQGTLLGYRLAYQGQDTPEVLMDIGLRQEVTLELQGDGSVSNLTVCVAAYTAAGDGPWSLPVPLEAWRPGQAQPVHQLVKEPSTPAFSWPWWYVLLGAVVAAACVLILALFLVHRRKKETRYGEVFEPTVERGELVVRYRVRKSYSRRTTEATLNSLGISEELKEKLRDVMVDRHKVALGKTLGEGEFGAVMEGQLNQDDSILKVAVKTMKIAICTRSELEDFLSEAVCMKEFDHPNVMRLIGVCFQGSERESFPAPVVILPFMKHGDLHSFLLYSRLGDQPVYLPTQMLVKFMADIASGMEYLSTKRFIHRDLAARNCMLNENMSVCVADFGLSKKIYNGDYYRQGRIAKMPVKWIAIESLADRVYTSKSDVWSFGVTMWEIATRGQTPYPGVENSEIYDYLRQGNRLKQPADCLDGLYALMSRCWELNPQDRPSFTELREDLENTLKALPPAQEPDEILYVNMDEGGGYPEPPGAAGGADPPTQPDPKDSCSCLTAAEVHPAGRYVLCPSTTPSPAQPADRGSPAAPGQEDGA
# B1: 11B7: antagonistic rat anti-AXL monoclonal antibody, rat IgG1 (antibody, V domains shown)
# VL: DIQMTQAPSSLPASLGDRVTITCRASQDIGNYLRWFQQKPGKSPRLMISGATNLAAGVPSRFSGSRSGSDYSLTISSLESEDMADYYCLQSKESPWTFGGGTKLELK
# VH: EVQLQESGPGLVKPSQSLSLTCSVTGYSITSNYWGWIRKFPGDKMEWMGYITYSGSTSYNPSLKSRISITRDTSKNQFFLQLNSVTSEDTATYYCAITTFYYWGQGVMVTVSS
# What was measured:
# AXL = biological target: T1, AXL; assay: AXL receptor tyrosine phosphorylation ELISA; assay type: cell-based; parameters: expressed in transfected cells; host or cells: NIH3T3-AXL cl.7 (pLXSN-hAXL) and NCI-H292 lung cancer cells (endogenous AXL); settings: 10 μg/ml antibody, 400 ng/ml Gas6; NIH3T3-AXL cl.7 fibroblasts and NCI-H292 lung cancer cells
# Protocol: ELISA experiments were performed in order to investigate whether the rat anti-AXL antibodies of the invention are able to block ligand Gash-mediated activation of AXL. Gas6-mediated AXL activation was detected by increased receptor tyrosine phosphorylation. In brief, on day 1, 3×10^4 cells per well were seeded in normal growth medium in flat-bottom 96 well plates. The next day, growth medium was replaced by serum-free medium to starve cells over night for 24 h. Also over night, black Maxi-Sorp 96 well plates (Nunc) were coated with mouse anti-phospho-tyrosine antibody 4G10 at 2 μg/ml PBS and 4° C. On day 3, the 4G10 antibody solution was removed and Maxi-Sorp wells were blocked with PBS, 0.5% BSA for at lest 4 h at room temperature. […] Medium was then flicked out and cells were lysed in lysis buffer (50 mM HEPES, pH 7.5, 150 mM NaCl, 1 mM EDTA, 10% glycerine, and 1% Triton X-100) supplemented with phosphatase and protease inhibitors (10 mM Na4P2O7, 1 mM phenylmethylsulfonyl fluoride, 1 mM orthovanadate, 1 mM NaF, and 0.5% aprotinin) for 30 min on ice. […] Using a Victor plate reader (Perkin Elmer), the fluorescence of each well was collected at an excitation wavelength of 430 nm and an emission wavelength of 580 nm.
# p42/p44 MAP-Kinase = p42/p44 MAP-Kinase phosphorylation ELISA, rat versus chimeric antibody; assay type: cell-based, human; settings: 50 ng/ml to 10 μg/ml antibody, 400 ng/ml Gas6; CaSki
# Protocol: To additionally verify whether the rat anti-Axl antibodies of the invention and the corresponding chimeric anti-Axl antibodies of the invention were also able to inhibit Gash-induced activation of p42/p44 MAP-Kinase in CaSki cervical cancer cells to similar extent, ELISA experiments were performed. Here, Gas6-induced p42/p44 MAP-Kinase activation was detected by increased protein (Thr202/Tyr204) phosphorylation. In brief, on the first day, 2×10^4 cells per well were seeded in flat-bottom 96 well plates. The next day, normal growth medium was replaced by serum-free medium to starve cells for 24 h. Thereafter, cells were pre-incubated with 50 ng/ml, 100 ng/ml, 300 ng/ml, 750 ng/ml, 1 μg/ml, and 10 μg/ml of rat anti-Axl antibody 11B7 or chimeric anti-Axl antibody ch11B7 for 1 h at 37° C. and then treated with or without 400 ng/ml Gas6 (R&D Systems) for 10 min at 37° C. Medium was flicked out and cells were fixed with 4% formaldehyde in PBS (pH 7.5) for 30 min at room temperature. Formaldehyde solution was removed and cells were washed twice with wash buffer (PBS, 0.1% Tween 20). Cells were quenched with 1% H2O2, 0.1% NaN3 in wash buffer and incubated for 20 min at room temperature. […] Tetramethylbenzidine (TMB, Calbiochem) was added and monitored at 620 nm.
molecule,measurement,setting,value
B1,ligand-mediated AXL activation (phosphorylation),AXL,able to block or reduce ligand-mediated AXL activation
same,"Gas6-induced p42/p44 MAP-Kinase activation, concentration-dependent",p42/p44 MAP-Kinase,able to block Gas6-induced activation of p42/p44 MAP-Kinase in CaSki cervical cancer cells to similar extent
